{
  "source": "paper PMC6521355",
  "about": "“Enzymatic Conversion of RBCs by α-N-Acetylgalactosaminidase from Spirosoma linguale” (Enzyme Research, 2019)",
  "molecules": {"B1": {"name": "S. linguale α-NAGA (SlNAGA) (Spirosoma linguale DSM 74) (protein)", "chain": "MPSLYTTAQAGSRPSALSKVRLAFIGVGLRGRNHLQQALYRSDVEVTALCDISADAIAKSNAMIEKAGRKTPPAYTKGDEAFLDMLKRDDIDGVVIATPWEWHTPMAVASMKAGKYTGLEVSATVTLKESWDLVNTYEKTKSHCMLLENVCYRRDVMAILNMVRQGMFGEMTYAHCGYEHDLRNIKFNDGTARGVGAEFGEKGFSEAHWRTQHSVDRNGDLYPTHGLGPVAHWLNINRGNQFVRLTSMATKSRGLHKYVVDKGGANHPNAKVNFKLGDVVTTMVECANGENIVIIHDTNSPRPYSLGFRAQGTQGIWMDDGDTIYLEGVSPKPHQWESFSPYQEKYDHPLWKQHVETAQNAGHGGIDFFVLRGFIESIKNQVAPPIDVYDAAAWSAISPLSEQSIAGGSKAVDIPDFTRGKWKTNKPIFGLTDVY", "notes": "E. coli BL21(DE3); monomer 48215 Da calculated, 96 kDa dimer; primers encode N-term MPSLYTTAQ and C-term PIFGLTDVY"}},
  "key": {"[1]": {"biological_target": "Spirosoma linguale α-N-acetylgalactosaminidase (Spirosoma linguale)", "test": "SEC; analytical gel filtration of the tag-free purified enzyme, Zorbax GF-250 column, 30°C, TBS (50 mM Tris 150 mM NaCl) pH 7.4, 1.0 mL/min; mass from Ve/Vo against five protein standards"}, "[2]": {"biological_target": "T1, S. linguale α-NAGA (SlNAGA) (Spirosoma linguale, UniProt D2QUW2)", "T1 construct": "gene Slin_6637; E. coli BL21(DE3); monomer 48215 Da calculated, 96 kDa dimer; primers encode N-term MPSLYTTAQ and C-term PIFGLTDVY", "T1 sequence (D2QUW2 1-435)": "B1 chain", "test": "Product inhibition of 4-nitrophenyl substrate hydrolysis, absorbance at […] nm, competitive model fit", "type": "biochemical", "details": "20 mM sodium phosphate pH 7.0, ~22 °C"}, "purified protein": {"substrate": "CC(=O)N[C@H]1[C@@H](Oc2ccc([N+](=O)[O-])cc2)O[C@H](CO)[C@H](O)[C@@H]1O", "test": "purified protein", "type": "biochemical, Spirosoma linguale", "details": "20 mM sodium phosphate pH 7.4, 25 °C"}},
  "data": [
    {"molecule": "Spirosoma linguale α-N-acetylgalactosaminidase (enzyme)", "values": [
      {"measurement": "stoichiometry N", "setting": "[1]", "result": 2}
    ]},
    {"molecule": "CC(=O)N[C@H]1C(O)O[C@H](CO)[C@H](O)[C@@H]1O", "note": "(some centres unmarked) [N-acetylgalactosamine]", "values": [
      {"measurement": "Ki", "setting": "[2]", "result": "180 ± 24", "unit": "µM"}
    ]},
    {"molecule": "B1", "values": [
      {"measurement": "Km", "setting": "purified protein", "result": "1070 ± 70", "unit": "µM"},
      {"measurement": "kcat", "setting": "purified protein", "result": 173, "unit": "s⁻¹"},
      {"measurement": "kcat/Km", "setting": "purified protein", "result": 163000, "unit": "M⁻¹ s⁻¹"}
    ]}
  ]
}
